Test results taken from the Human Domainome abundance scans (Beltran et al. 2025).
± gives the uncertainty stated by the source.

B1: POU domain, class 3, transcription factor 2, residues 262 to 338; numbered along this chain, P20265 (parent)
chain: EDTPTSDDLEQFAKQFKQRRIKLGFTQADVGLALGTLYGNVFSQTTICRFEALQLSFKNMCKLKPLLNKWLEEADSS

Variants of: B1
Assay: abundance fitness (aPCA) (normalised: wild type 0, dead -1); higher = more abundant; growth selection in yeast, the domain comes from the species named
Conditions: Homo sapiens
Work on L37S yielded an abundance fitness of -0.093 ± 0.037. T26Y showed an abundance fitness of -0.89 ± 0.23. L23I showed an abundance fitness of -0.565 ± 0.12. With F50L the abundance fitness was -0.487 ± 0.039. In the case of G39F, the abundance fitness is reported as -0.621 ± 0.13. In the case of E72Y, the abundance fitness is reported as -0.217 ± 0.085. Work on A33D yielded an abundance fitness of -0.284 ± 0.068. In the case of S76Y, the abundance fitness is reported as -0.14 ± 0.068. In the case of L32W, the abundance fitness is reported as -0.015 ± 0.17. Variant F50P has an abundance fitness of -0.756 ± 0.085. In the case of E72Q, the abundance fitness is reported as 0.003 ± 0.051. D8W showed an abundance fitness of -0.418 ± 0.042. In the case of M60W, the abundance fitness is reported as -0.625 ± 0.071. Work on G31W yielded an abundance fitness of -0.207 ± 0.049. Work on L9R yielded an abundance fitness of -0.716 ± 0.047. Q44W showed an abundance fitness of -0.399 ± 0.042. With S6D the abundance fitness was -0.092 ± 0.042. In the case of K64W, the abundance fitness is reported as -0.199 ± 0.04. Work on R20T yielded an abundance fitness of -1.13 ± 0.19. In the case of A28W, the abundance fitness is reported as -0.301 ± 0.042. T46Y showed an abundance fitness of -0.547 ± 0.14. For W70S, the abundance fitness was -0.742 ± 0.065. For P65H, the abundance fitness was -0.034 ± 0.25. Work on Q44T yielded an abundance fitness of -0.018 ± 0.039. Work on Q15S yielded an abundance fitness of 0.013 ± 0.036. Q54E showed an abundance fitness of -0.03 ± 0.045. Variant N40R has an abundance fitness of 0.023 ± 0.035. For K14A, the abundance fitness was -0.008 ± 0.05. Variant S76P has an abundance fitness of -0.012 ± 0.044. For G31F, the abundance fitness was -0.39 ± 0.14. L23G gave an abundance fitness of -0.398 ± 0.045. Work on T3D yielded an abundance fitness of -0.324 ± 0.06. In the case of N40T, the abundance fitness is reported as -0.063 ± 0.051. Variant G31K has an abundance fitness of -0.383 ± 0.065. Work on G24W yielded an abundance fitness of -0.784 ± 0.054. In the case of T36S, the abundance fitness is reported as 0.042 ± 0.036. For T45R, the abundance fitness was -0.005 ± 0.025. Variant E10N has an abundance fitness of -0.204 ± 0.075. K62S showed an abundance fitness of -0.055 ± 0.032. Work on R49E yielded an abundance fitness of 0.026 ± 0.032. Variant S76A has an abundance fitness of 0.05 ± 0.031. D29Q gave an abundance fitness of -0.04 ± 0.04. Work on K64S yielded an abundance fitness of -0.226 ± 0.042. E73L showed an abundance fitness of -0.013 ± 0.06. A13D showed an abundance fitness of -0.865 ± 0.14. R19N showed an abundance fitness of -0.182 ± 0.095. With K62F the abundance fitness was -0.126 ± 0.086. For F12Q, the abundance fitness was -0.828 ± 0.43. P4H showed an abundance fitness of 0.075 ± 0.06. With T46L the abundance fitness was -0.103 ± 0.032. With S43M the abundance fitness was -0.569 ± 0.071. Work on K64N yielded an abundance fitness of -0.944 ± 0.26. With A33R the abundance fitness was -0.102 ± 0.031. With L9Q the abundance fitness was -0.53 ± 0.061. Variant N59L has an abundance fitness of 0.029 ± 0.042. Work on L66W yielded an abundance fitness of -0.148 ± 0.034. I47L gave an abundance fitness of -0.267 ± 0.039. N68Q gave an abundance fitness of -0.313 ± 0.43. With G39N the abundance fitness was -0.012 ± 0.066. In the case of T46R, the abundance fitness is reported as -0.376 ± 0.03. With E72C the abundance fitness was -0.042 ± 0.056. With R20C the abundance fitness was -1.01 ± 0.18. For L23T, the abundance fitness was -0.486 ± 0.06. In the case of M60Q, the abundance fitness is reported as -0.546 ± 0.095. A13L gave an abundance fitness of -0.759 ± 0.082. For S56D, the abundance fitness was -0.093 ± 0.065. Work on F25T yielded an abundance fitness of -0.632 ± 0.079. In the case of Q11F, the abundance fitness is reported as -0.062 ± 0.068. L63T gave an abundance fitness of -0.524 ± 0.061. With S43E the abundance fitness was -0.031 ± 0.039. Variant G35S has an abundance fitness of 0.037 ± 0.033. For S77T, the abundance fitness was 0.073 ± 0.049. L55F gave an abundance fitness of -0.277 ± 0.063. G39M showed an abundance fitness of -0.624 ± 0.074. Work on E1S yielded an abundance fitness of -0.164 ± 0.076. A52S gave an abundance fitness of 0.015 ± 0.033. E10P gave an abundance fitness of -0.189 ± 0.051. With F42A the abundance fitness was -0.012 ± 0.034. For D75K, the abundance fitness was -0.058 ± 0.047. For L9H, the abundance fitness was -0.352 ± 0.069. In the case of Q54T, the abundance fitness is reported as -0.068 ± 0.054. In the case of W70V, the abundance fitness is reported as -0.411 ± 0.042. Variant L66D has an abundance fitness of -0.767 ± 0.23. Variant D8V has an abundance fitness of -0.153 ± 0.035. W70H gave an abundance fitness of -0.943 ± 0.21. Variant D2R has an abundance fitness of -0.03 ± 0.029. Work on Y38Q yielded an abundance fitness of -0.141 ± 0.052. For L71E, the abundance fitness was -0.598 ± 0.49. Variant C48A has an abundance fitness of 0.086 ± 0.03. L37V showed an abundance fitness of -0.042 ± 0.029. Work on L9K yielded an abundance fitness of -0.606 ± 0.077. L71K showed an abundance fitness of -0.559 ± 0.2. C61E gave an abundance fitness of -0.147 ± 0.037. In the case of D29T, the abundance fitness is reported as -0.428 ± 0.06. F25W gave an abundance fitness of -0.149 ± 0.035. V30H showed an abundance fitness of -0.529 ± 0.19. Variant N40S has an abundance fitness of 0.022 ± 0.041. For D8K, the abundance fitness was -0.074 ± 0.07. In the case of A74E, the abundance fitness is reported as -0.065 ± 0.037. For V30Q, the abundance fitness was -1.11 ± 0.23. With M60N the abundance fitness was -0.561 ± 0.33. Work on T3C yielded an abundance fitness of 0.009 ± 0.06. W70K gave an abundance fitness of -0.814 ± 0.12. Work on C61Q yielded an abundance fitness of -0.112 ± 0.048. For E73V, the abundance fitness was -0.067 ± 0.073. For S77W, the abundance fitness was -0.105 ± 0.065. Work on F16H yielded an abundance fitness of -0.91 ± 0.19. Work on E51Q yielded an abundance fitness of -0.803 ± 0.12. Work on E1Y yielded an abundance fitness of -0.177 ± 0.18. Q44R gave an abundance fitness of -0.066 ± 0.028. With P65W the abundance fitness was -0.201 ± 0.092. Work on N59S yielded an abundance fitness of -0.001 ± 0.039. Variant M60K has an abundance fitness of -0.97 ± 0.18. Q18D gave an abundance fitness of -0.068 ± 0.061. In the case of Y38P, the abundance fitness is reported as -0.36 ± 0.058. Work on F16A yielded an abundance fitness of -0.656 ± 0.045. With T5N the abundance fitness was 0.026 ± 0.046. I47V showed an abundance fitness of -0.121 ± 0.027. Q11C showed an abundance fitness of -0.141 ± 0.052. Variant S77A has an abundance fitness of 0.115 ± 0.038. F57Y gave an abundance fitness of 0.056 ± 0.11. Variant D8T has an abundance fitness of -0.093 ± 0.055. Work on L55W yielded an abundance fitness of -0.645 ± 0.043. Work on F25L yielded an abundance fitness of -0.08 ± 0.03. For T26E, the abundance fitness was -0.536 ± 0.058. In the case of T46N, the abundance fitness is reported as -0.393 ± 0.1. Variant L9S has an abundance fitness of -0.564 ± 0.049. For G24I, the abundance fitness was -0.94 ± 0.14. For S43C, the abundance fitness was -0.042 ± 0.05. In the case of G24K, the abundance fitness is reported as -0.295 ± 0.043. In the case of E73T, the abundance fitness is reported as 0.089 ± 0.073. D7R gave an abundance fitness of 0.031 ± 0.22. Work on E1N yielded an abundance fitness of 0.124 ± 0.21. E72P showed an abundance fitness of -0.655 ± 0.11. For K69D, the abundance fitness was -0.264 ± 0.14. E51A gave an abundance fitness of -0.855 ± 0.072. For A74V, the abundance fitness was 0.041 ± 0.034. F16I showed an abundance fitness of -0.753 ± 0.13. A33Q showed an abundance fitness of 0.015 ± 0.042. For L23S, the abundance fitness was -0.345 ± 0.04. Q27V showed an abundance fitness of -0.115 ± 0.032. Variant R20H has an abundance fitness of -1.02 ± 0.3. For N59C, the abundance fitness was -0.042 ± 0.056. K17T showed an abundance fitness of -0.192 ± 0.036. Variant G39H has an abundance fitness of -0.19 ± 0.074. Variant K17S has an abundance fitness of -0.279 ± 0.035. Work on P65G yielded an abundance fitness of -0.108 ± 0.05. K22H gave an abundance fitness of -0.168 ± 0.064. T3K gave an abundance fitness of -0.023 ± 0.048. In the case of D2C, the abundance fitness is reported as -0.124 ± 0.049. Q11D gave an abundance fitness of -0.114 ± 0.066. L67C gave an abundance fitness of -0.504 ± 0.23. L23E showed an abundance fitness of -0.578 ± 0.061. L66E gave an abundance fitness of -0.637 ± 0.061. Work on K22R yielded an abundance fitness of -0.054 ± 0.029. With V30C the abundance fitness was -0.176 ± 0.073. S43L gave an abundance fitness of -0.485 ± 0.049. S6K showed an abundance fitness of 0.091 ± 0.033. Work on Q15R yielded an abundance fitness of -0.035 ± 0.027. With L34I the abundance fitness was -0.132 ± 0.057. F16K gave an abundance fitness of -0.633 ± 0.079. L34Q gave an abundance fitness of -0.948 ± 0.15. In the case of F25R, the abundance fitness is reported as -0.321 ± 0.03. With K64H the abundance fitness was -0.051 ± 0.074. In the case of V30D, the abundance fitness is reported as -0.794 ± 0.31. For W70T, the abundance fitness was -1.06 ± 0.18. Work on L63S yielded an abundance fitness of -0.668 ± 0.059.
